One block for each binder: values may come before it.
How the values were obtained:
[1] = molecular target: T1, human SEMA4D, full length, on CHO-K1 cells (CHO-K1 hSEMA4D) (human) (UniProt Q92854); assay: competitive FACS, CHO-K1 hSEMA4D cells; unlabelled Ab 6 ug/mL first, competitor Alexa 488-2D5 0.67 ug/mL
T1 sequence (looked up): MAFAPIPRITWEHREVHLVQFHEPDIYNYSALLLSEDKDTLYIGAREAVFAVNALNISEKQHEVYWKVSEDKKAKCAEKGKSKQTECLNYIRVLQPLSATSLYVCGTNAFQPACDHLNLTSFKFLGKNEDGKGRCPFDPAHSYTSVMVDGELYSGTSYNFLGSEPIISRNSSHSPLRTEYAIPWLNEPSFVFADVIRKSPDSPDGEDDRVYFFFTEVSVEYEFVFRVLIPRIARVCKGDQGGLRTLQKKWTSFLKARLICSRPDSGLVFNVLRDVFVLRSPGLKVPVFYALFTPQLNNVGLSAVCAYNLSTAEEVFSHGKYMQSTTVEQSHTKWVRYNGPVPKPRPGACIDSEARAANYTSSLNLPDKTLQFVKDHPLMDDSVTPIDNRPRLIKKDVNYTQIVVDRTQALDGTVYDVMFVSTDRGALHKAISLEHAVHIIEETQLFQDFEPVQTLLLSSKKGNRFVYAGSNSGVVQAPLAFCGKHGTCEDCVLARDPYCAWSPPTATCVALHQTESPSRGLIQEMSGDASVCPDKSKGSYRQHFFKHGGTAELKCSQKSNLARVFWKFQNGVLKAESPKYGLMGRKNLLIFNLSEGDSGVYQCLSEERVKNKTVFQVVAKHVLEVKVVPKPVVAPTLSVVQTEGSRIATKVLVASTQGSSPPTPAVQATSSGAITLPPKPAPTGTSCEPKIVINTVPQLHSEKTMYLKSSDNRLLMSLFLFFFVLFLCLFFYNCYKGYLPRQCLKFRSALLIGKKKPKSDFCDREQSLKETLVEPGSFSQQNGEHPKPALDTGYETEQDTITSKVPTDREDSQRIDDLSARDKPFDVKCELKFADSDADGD

[2] = molecular target: T1, human SEMA4D, full length, on CHO-K1 cells (CHO-K1 hSEMA4D) (human); assay: competitive FACS, CHO-K1 hSEMA4D cells; unlabelled Ab 6 ug/mL first, competitor Alexa 488-5D8 0.67 ug/mL
[3] = molecular target: T1, human SEMA4D, full length, on CHO-K1 cells (CHO-K1 hSEMA4D) (human); assay: competitive FACS, CHO-K1 hSEMA4D cells; unlabelled Ab 6 ug/mL first, competitor Alexa 488-VX15 0.67 ug/mL
[4] = molecular target: T2, biotinylated hSEMA4D ECD-His (human) (UniProt Q92854); assay: BLI (Octet-Red), scFv in bacterial periplasmic extract; off-rate ranking
T2 sequence (chain, biotinylated with Biotin-X-X-NHS at a molar ratio of 8,1; sites not stated): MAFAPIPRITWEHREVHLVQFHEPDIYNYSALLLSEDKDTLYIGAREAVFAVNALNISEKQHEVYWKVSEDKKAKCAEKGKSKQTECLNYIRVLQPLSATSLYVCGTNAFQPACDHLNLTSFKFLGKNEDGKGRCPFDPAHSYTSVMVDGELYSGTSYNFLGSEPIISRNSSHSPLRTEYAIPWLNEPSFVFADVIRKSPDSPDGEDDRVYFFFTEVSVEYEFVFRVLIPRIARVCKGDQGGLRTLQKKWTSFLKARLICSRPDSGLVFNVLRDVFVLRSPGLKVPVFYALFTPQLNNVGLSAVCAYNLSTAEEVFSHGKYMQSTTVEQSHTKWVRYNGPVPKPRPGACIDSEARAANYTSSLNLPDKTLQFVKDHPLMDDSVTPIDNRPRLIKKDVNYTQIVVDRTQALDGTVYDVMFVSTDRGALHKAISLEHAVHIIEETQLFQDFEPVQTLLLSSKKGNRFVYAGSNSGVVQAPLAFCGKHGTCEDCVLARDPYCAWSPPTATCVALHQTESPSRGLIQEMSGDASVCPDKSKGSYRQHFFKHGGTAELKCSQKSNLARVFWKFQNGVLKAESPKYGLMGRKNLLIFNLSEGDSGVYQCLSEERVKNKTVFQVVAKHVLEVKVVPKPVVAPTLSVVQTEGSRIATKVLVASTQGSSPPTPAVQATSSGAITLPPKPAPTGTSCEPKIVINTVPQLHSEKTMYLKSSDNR

inhibition rate (%) [1]: 96%
inhibition rate (%) [2]: 98%
inhibition rate (%) [3]: 97%
B1: VX15 (antibody, INN chains, looked up, V domains shown)
VH: QVQLVQSGAEVKKPGSSVKVSCKASGYSFSDYYMHWVRQAPGQGLEWMGQINPTTGGASYNQKFKGKATITVDKSTSTAYMELSSLRSEDTAVYYCARYYYGRHFDVWGQGTTVTVSS
VL: DIVMTQSPDSLAVSLGERATINCKASQSVDYDGDSYMNWYQQKPGQPPKLLIYAASNLESGVPDRFSGSGSGTDFTLTISSLQAEDVAVYYCQQSNEDPYTFGQGTKLEIK

fold reduction of off-rate against the wild type [4]: 45 times
B2: 2D5-b1-3D9 scFv (periplasmic extract) (scFv, part only; not given: linker, domain order, tags, V domains shown, not shown: another chain or arm of the molecule; large carriers; small tags and cut ends)
VH: QVTLRESGPALVKPTQTLTLTCTFSGFSLTTTGVAVTWIRQPPGKALEWLALIDWDDDKYYSTSLKTRLTISKDTSKNQVVLTMTNMDPVDTATYYCARIASGDSGGYFADWGQGTLVTVSS
VL: SYELTQPPSVSVSPGQTASITCSGDKLDDKYVYWYQQKPGQSPVLVIYMDNKRKSGIPERFSGSNSGNTATLTISGTQAMDEADYYCQAWESSSDQYVFGTGTKVTVL

From US20220073608A1
